Measurements: paper PMC2192624 (The Journal of Experimental Medicine, 1996)

Target: T1, Gal4 DNA-binding domain (DNABD) linked to the full-length CIITA (pSGCIITA) (UniProt P33076 1-1130)
T1 sequence: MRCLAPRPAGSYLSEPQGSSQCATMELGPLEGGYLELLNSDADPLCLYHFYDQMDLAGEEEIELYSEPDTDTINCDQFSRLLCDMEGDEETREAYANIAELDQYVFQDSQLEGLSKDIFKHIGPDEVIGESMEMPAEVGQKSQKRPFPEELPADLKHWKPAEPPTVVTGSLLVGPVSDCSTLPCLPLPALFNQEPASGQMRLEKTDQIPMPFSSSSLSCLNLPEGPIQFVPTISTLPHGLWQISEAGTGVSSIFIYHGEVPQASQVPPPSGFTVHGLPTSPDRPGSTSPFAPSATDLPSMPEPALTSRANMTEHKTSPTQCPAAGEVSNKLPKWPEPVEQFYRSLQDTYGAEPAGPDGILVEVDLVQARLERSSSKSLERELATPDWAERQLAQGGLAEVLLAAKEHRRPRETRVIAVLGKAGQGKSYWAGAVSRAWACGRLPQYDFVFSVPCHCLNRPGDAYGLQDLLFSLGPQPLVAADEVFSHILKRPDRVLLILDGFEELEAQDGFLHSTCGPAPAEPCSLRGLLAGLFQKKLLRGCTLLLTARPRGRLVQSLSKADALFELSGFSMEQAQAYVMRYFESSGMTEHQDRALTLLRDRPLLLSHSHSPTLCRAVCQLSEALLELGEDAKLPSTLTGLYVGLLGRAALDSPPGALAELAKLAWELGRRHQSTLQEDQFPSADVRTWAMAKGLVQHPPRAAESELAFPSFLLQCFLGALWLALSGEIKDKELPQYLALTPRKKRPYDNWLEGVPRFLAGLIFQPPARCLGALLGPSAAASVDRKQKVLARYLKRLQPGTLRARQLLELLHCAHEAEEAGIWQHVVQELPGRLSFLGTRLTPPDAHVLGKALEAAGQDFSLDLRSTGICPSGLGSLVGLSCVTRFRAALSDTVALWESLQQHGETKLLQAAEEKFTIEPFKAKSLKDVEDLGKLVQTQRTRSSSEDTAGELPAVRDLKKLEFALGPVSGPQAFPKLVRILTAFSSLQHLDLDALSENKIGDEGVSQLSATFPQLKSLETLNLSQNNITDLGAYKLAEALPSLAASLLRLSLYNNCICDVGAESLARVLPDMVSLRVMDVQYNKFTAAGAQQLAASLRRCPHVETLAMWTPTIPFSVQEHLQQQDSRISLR
Experiment: two-hybrid

B1: Bob1 expressed from pCBOB1 (natural protein)
chain: MLWQKPTAPEQAPAPARPYQGVRVKEPVKELLRRKRGHASSGAAPAPTAVVLPHQPLATYTTVGPSCLDMEGSVSAVTEEAALCAGWLSQPTPATLQPLAPWTPYTEYVPHEAVSCPYSADMYVQPVCPSYTVVGPSSVLTYASPPLITNVTTRSSATPAVGPPLEGPEHQAPLTYFPWPQPLSTLPTSTLQYQPPAPALPGPQFVQLPISIPEPVLQDMEDPRRAASSLTIDKLLLEEEDSDAYALNHTLSVEGF
B1 was tested, and the “fold transactivation of pDRAUASgCAT (CAT reporter, with OBS)” value was 95 fold and the “fold transactivation of pG1E1bCAT (CAT reporter, no OBS)” value was 90 fold.
